How the values were obtained:
HIV-1 Rev [1] = molecular target: T1, HIV-1 Rev (Human immunodeficiency virus 1, UniProt P04618 P04618:1-116); experiment: photo-independent crosslinking seen at 50 nM Rev in 1:100 weight ratio with human nuclear extract
Description: Trunc24 (SEQ ID NO:59) photo-independent crosslinking with HIV-1 Rev in the presence of human nuclear extracts was determined as follows: Trunc24 RNA, nuclear extracts, and Rev protein were combined and incubated on ice for 10 min. Samples were mixed 1:1 with 8 M urea loading buffer and placed on a 7 M urea, 8% polyacrylamide gel for analysis, XL indicates the nucleoprotein complex, RNA indicates free trunc24 RNA.

HIV-1 Rev [2] = molecular target: T1, HIV-1 Rev; experiment: photocrosslinking 325 nm, 4 min, 500 nM protein, 20 ug tRNA, 37 C
From the text: The sequences are aligned for maximum homology to the 6a sequence (SEQ ID NO:5). Underlines represent potential base pairing as indicted by computer RNA folding algorithms. Dashed underlines represent the 6a ligand “bubble” motif. Sequences flanked by underline represent either loop or bulge regions. Dashes are placed to maximize alignment with 6a. * denotes that two isolates were obtained. +indicates laser independent crosslinking and—denotes the lack of laser independent crosslinking to HIV-1 Rev. […] FIGS. 18 and 19 show the sequence of Trunc2 (SEQ ID NO:58) and Trunc24 (SEQ-ID NO:59) and the specificity results. 500 nM protein, 20 μg tRNA, and approximately 1 nM of kinased trunc2 RNA were incubated for 10 min. at 37° C. and irradiated for 4 min at 325 nm. t2-trunc2 RNA irradiated without added protein; t2Rev1/O′-trunc2 RNA, HIV-1 Rev protein and 0 min. of irradiation; t2/Rev1/4′-trunc2 RNA, HIV-1 Rev protein, adn 4 min. of irradiation; t2/Rev1/4′/PK-trunc2 RNA, HIV-1 Rev protein, 4 min. or irradiation, and proteinase K treated as in FIG. 1; t2/Rev2/4′-trunc2 RNA, HIV-2 Rev protein, and 4 min. of irradiation; t2/Tat/4′-trunc2 RNA, HIV-1 Tat protein, and 4 min. of irradiation. R-free RNA; XL-crosslinked nucleoprotein complex.

T1 sequence (P04618 whole entry, one chain of several): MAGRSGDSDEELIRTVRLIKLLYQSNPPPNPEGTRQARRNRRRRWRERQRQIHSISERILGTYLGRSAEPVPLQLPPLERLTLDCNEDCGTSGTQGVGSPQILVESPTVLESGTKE

Row | Binder | binding result (HIV-1 Rev [1]) | binding result (HIV-1 Rev [2])
1 | GGGGAUUAACAGGCACACCUGUUAACCCU (ssRNA) [trunc24] | binds | 
2 | GGGUGUAUGAAACACCACGUGUGUUUCCACUC (ssRNA, 5-iodouracil at all U) [trunc2] |  | binds

Reference: patent US20040132067, “Systematic evolution of ligands by exponential enrichment: photoselection of nucleic acid ligands and solution selex” (SOMALOGIC, INC., published 2004)
